Measurements: PMC6544321

What was measured:
[1] = target: yeast single-chain H2A.Z-H2B (yeast); test: ITC; MicroCal VP-ITC, 25°C, 20 mM MES (pH 6.0), 0.5 M NaCl; chaperone (50 or 150 μM) injected into histones (5 μM scZB or 15 μM scAB and mutants) in the cell; one-site fit
[2] = target: single chain H2A-H2B with H2A P50A/N91G (yeast); test: as above
[3] = target: single-chain H2A.Z-H2B with H2A.Z A57P/G98N (yeast); test: as above
[4] = target: single-chain H2A.Z-H2B with H2A.Z A57P (yeast); test: as above
[5] = target: single-chain H2A.Z-H2B with H2B Y45A/M62A (yeast); test: as above
[6] = target: single-chain H2A.Z-H2B with H2A.Z RA→GNV (yeast); test: as above
[7] = target: single-chain H2A.Z-H2B with H2A.Z G98N (yeast); test: as above
[8] = target: yeast single-chain H2A.Z-H2B (yeast); test: ITC; 0.2 M NaCl (Table 1); Swc2-Z or Chz1-M injected into single-chain histone dimers; otherwise as the ITC methods (25°C, 20 mM MES pH 6.0)

B1: full-length Chz1 (natural protein)
chain: MSDEAKEKRELESQKESSHNKSEKSVEPKPKRRRRRNYDDYDAEVAKEETKAKNGLTKSENNGTVEDSESDMDDAKLDALMGNEGEEEEDDLAEIDTSNIITSGRRTRGKVIDYKKTAEELDKKEPSTGSKDDVGYGEKEEDDEDEEDDDFKE
Question: Which results are given for B1?
Answer: Kd [1]: 130 nM; stoichiometry N [1]: 1 sites

B2: middle and C-terminal region of Chz1 (Chz1 64-153) (domain or fragment)
chain: TVEDSESDMDDAKLDALMGNEGEEEEDDLAEIDTSNIITSGRRTRGKVIDYKKTAEELDKKEPSTGSKDDVGYGEKEEDDEDEEDDDFKE
Question: Which results are given for B2?
Answer: Kd [2]: 160 nM; stoichiometry N [2]: 1.1 sites; Kd [3]: 3390 nM; stoichiometry N [3]: 1.1 sites; Kd [4]: 740 nM; stoichiometry N [4]: 1 sites; Kd [5]: 1120 nM; stoichiometry N [5]: 0.8 sites; Kd [6]: 190 nM; stoichiometry N [6]: 1 sites; Kd [7]: 970 nM; stoichiometry N [7]: 0.9 sites; Kd [1]: 120 nM; stoichiometry N [1]: 0.9 sites

B3: middle region of Chz1 (Chz1 64-124) (domain or fragment)
chain: TVEDSESDMDDAKLDALMGNEGEEEEDDLAEIDTSNIITSGRRTRGKVIDYKKTAEELDKK
Question: Which results are given for B3?
Answer: Kd [1]: 1060 nM; stoichiometry N [1]: 1 sites; Kd [8]: 20 nM; stoichiometry N [8]: 1 sites
